Assay results reported in article PMC9210283, “DNA cytosine methylation at the lexA promoter of Escherichia coli is stationary phase specific”.

Tests used:
LexA [1] = molecular target: T1, LexA (Escherichia coli, UniProt P0A7C2 1-202); assay: EMSA; concentration as LexA dimer; Hill slope 1.1; 10 mM MgCl2; EMSA: 70 mM Tris-HCl pH 7.5, 2 mM PIPES, 180 mM NaCl, 10 mM MgCl2, 1 ug/ml salmon sperm DNA, 100 ug/ml BSA, 5% glycerol, 0.006% bromophenol blue, 0.1 nM probe; settings: protein: recombinant; chain copies: 2; label: 32P (5' on strand 1); blunt
LexA [2] = molecular target: T1, LexA; assay: EMSA; concentration as LexA dimer; Hill slope 1.2; 10 mM MgCl2; EMSA: 70 mM Tris-HCl pH 7.5, 2 mM PIPES, 180 mM NaCl, 10 mM MgCl2, 1 ug/ml salmon sperm DNA, 100 ug/ml BSA, 5% glycerol, 0.006% bromophenol blue, 0.1 nM probe; settings: protein: recombinant; chain copies: 2; label: 32P (5' on strand 1); blunt

T1 sequence (P0A7C2 whole entry): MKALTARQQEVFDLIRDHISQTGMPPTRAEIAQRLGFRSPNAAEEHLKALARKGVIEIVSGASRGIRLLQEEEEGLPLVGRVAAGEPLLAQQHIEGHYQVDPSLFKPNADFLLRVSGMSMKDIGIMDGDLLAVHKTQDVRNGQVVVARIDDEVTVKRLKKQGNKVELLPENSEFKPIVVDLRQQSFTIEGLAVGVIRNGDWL

B1: lexAop 5mC/5mC (mC16 F / mC3 R) (dsDNA)
DNA 1: AATGCCTGCGGAAACTGTATATACACCCAGGGTCAATTCTGGCT
DNA 2: AGCCAGAATTGACCCTGGGTGTATATACAGTTTCCGCAGGCATT
modifications: 5-methyl-dC at position 28 of strand 1 and position 15 of strand 2
Kd (LexA [1]): 14 nM

B2: lexAop C/C (nonmethylated) (dsDNA)
DNA 1: B1 DNA 1
DNA 2: B1 DNA 2
Kd (LexA [2]): 15 nM
